Where no end group is shown, it is not given here. Me3 = trimethyl-lysine; Me2 = dimethyl-lysine
Biological target: T1, PHD domain of human MLL5 (Ser109-Asp188) (human, UniProt Q8IZD2 109-188, 15N-labelled in the NMR titration)
T1 construct: Mixed Lineage Leukemia 5 (MLL5), human, PHD finger, residues 109-188, 80 residues; Cloned into the vector pET28a-MHL (GenBank EF456735 is the vector's id); The tag is detected with anti-His in the peptide array; also called MLL5PHD; MLL5 PHD finger; source: E. coli BL21 (DE3) Codon plus RIL, purified (Ni column, Superdex200, Source 30Q; for NMR 13C/15N-labelled from minimal media, Ni-NTA)
T1 sequence (looked up): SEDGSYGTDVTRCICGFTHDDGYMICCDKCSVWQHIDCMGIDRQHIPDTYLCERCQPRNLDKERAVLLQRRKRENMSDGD
Assay: fluorescence polarisation; 40 nM fluorescein-labelled peptide, MLL5PHD titrated (low to high micromolar); 20 mM Tris-HCl pH 7.5, 50 mM NaCl, 0.01% Triton X-100; 384-well plates
Details: both partners purified

Kd | Binder
~16 µM | ARTK(Me2)QTARKSTGGKA (not fully specified (N-terminus); also: fluorescein label, C- or N-terminal (sources disagree)) [H3K4me2 peptide labelled with fluorescein]
~16 µM | ARTK(Me3)QTARKSTGGKA (not fully specified (N-terminus); also: fluorescein label, C- or N-terminal (sources disagree)) [H3K4me3 peptide labelled with fluorescein]

Reference: article PMC3793974, “Solution NMR Structure and Histone Binding of the PHD Domain of Human MLL5” (PLoS ONE, 2013)
